T1: SyFumC (GST-SyFumC; Synechocystis 6803 fumarase C) (Synechocystis sp. PCC 6803, UniProt Q55674)
T1 construct: gene fumC
T1 sequence (Q55674 1-466): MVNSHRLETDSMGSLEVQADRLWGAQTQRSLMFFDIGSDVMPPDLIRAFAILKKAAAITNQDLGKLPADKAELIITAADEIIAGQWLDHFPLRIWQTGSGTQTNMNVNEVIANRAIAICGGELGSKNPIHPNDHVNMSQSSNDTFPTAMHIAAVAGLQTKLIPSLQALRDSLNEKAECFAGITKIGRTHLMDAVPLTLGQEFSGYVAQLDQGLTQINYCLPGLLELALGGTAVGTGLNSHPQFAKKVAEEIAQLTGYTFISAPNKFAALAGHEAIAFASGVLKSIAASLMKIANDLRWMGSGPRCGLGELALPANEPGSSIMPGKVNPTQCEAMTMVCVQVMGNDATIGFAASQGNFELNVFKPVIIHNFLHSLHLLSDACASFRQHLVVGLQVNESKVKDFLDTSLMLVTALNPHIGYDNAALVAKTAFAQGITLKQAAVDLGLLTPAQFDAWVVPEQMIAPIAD


Tests used:
[1] = molecular target: T2, SyFumC (GST-SyFumC; Synechocystis 6803 fumarase C) (Synechocystis sp. PCC 6803, UniProt Q55674, A314E); test: absorbance at […] nm, saturation curve; assay type: biochemical; details: 100 mM Tris-HCl pH 7.5, 30 °C, no effector
T2 construct: gene fumC

[2] = molecular target: T1, SyFumC (GST-SyFumC; Synechocystis 6803 fumarase C); test: absorbance at […] nm, saturation curve; assay type: biochemical; details: 100 mM Tris-HCl pH 7.5, 30 °C, no effector
[3] = molecular target: T1, SyFumC (GST-SyFumC; Synechocystis 6803 fumarase C); test: inhibition, absorbance at […] nm; assay type: biochemical; details: read-out: % of control activity at 4 mM
purified protein = substrate: O=C(O)C[C@H](O)C(=O)O; test: purified protein; details: 100 mM Tris-HCl pH 7.5, 30 °C, no effector

Molecule	Km [1] [µM]	Km [2] [µM]	remaining activity at 4000 µM [3] [%]	Km (purified protein) [µM]	kcat (purified protein) [s⁻¹]	kcat/Km (purified protein) [M⁻¹ s⁻¹]
O=C(O)/C=C/C(=O)O [fumarate]	179 ± 36	244 ± 26				
O=C(O)CCC(=O)O [succinate]			45 to 58			
SyFumC (GST-SyFumC; Synechocystis 6803 fumarase C) (Synechocystis sp. PCC 6803 substr. Kazusa) (protein) MVNSHRLETDSMGSLEVQADRLWGAQTQRSLMFFDIGSDVMPPDLIRAFAILKKAAAITNQDLGKLPADKAELIITAADEIIAGQWLDHFPLRIWQTGSGTQTNMNVNEVIANRAIAICGGELGSKNPIHPNDHVNMSQSSNDTFPTAMHIAAVAGLQTKLIPSLQALRDSLNEKAECFAGITKIGRTHLMDAVPLTLGQEFSGYVAQLDQGLTQINYCLPGLLELALGGTAVGTGLNSHPQFAKKVAEEIAQLTGYTFISAPNKFAALAGHEAIAFASGVLKSIAASLMKIANDLRWMGSGPRCGLGELALPANEPGSSIMPGKVNPTQCEAMTMVCVQVMGNDATIGFAASQGNFELNVFKPVIIHNFLHSLHLLSDACASFRQHLVVGLQVNESKVKDFLDTSLMLVTALNPHIGYDNAALVAKTAFAQGITLKQAAVDLGLLTPAQFDAWVVPEQMIAPIAD				478 ± 112	42.3	90300
SyFumC (GST-SyFumC; Synechocystis 6803 fumarase C) (Synechocystis sp. PCC 6803 substr. Kazusa; A314E) (protein) MVNSHRLETDSMGSLEVQADRLWGAQTQRSLMFFDIGSDVMPPDLIRAFAILKKAAAITNQDLGKLPADKAELIITAADEIIAGQWLDHFPLRIWQTGSGTQTNMNVNEVIANRAIAICGGELGSKNPIHPNDHVNMSQSSNDTFPTAMHIAAVAGLQTKLIPSLQALRDSLNEKAECFAGITKIGRTHLMDAVPLTLGQEFSGYVAQLDQGLTQINYCLPGLLELALGGTAVGTGLNSHPQFAKKVAEEIAQLTGYTFISAPNKFAALAGHEAIAFASGVLKSIAASLMKIANDLRWMGSGPRCGLGELALPENEPGSSIMPGKVNPTQCEAMTMVCVQVMGNDATIGFAASQGNFELNVFKPVIIHNFLHSLHLLSDACASFRQHLVVGLQVNESKVKDFLDTSLMLVTALNPHIGYDNAALVAKTAFAQGITLKQAAVDLGLLTPAQFDAWVVPEQMIAPIAD				442 ± 20	21.6	49000

From PMC6650407 (Scientific Reports, 2019)
